{
  "source": "patent US20140336130A1",
  "about": "(PHIGENIX, INC., priority 2011, published 2014)",
  "molecules": {"B1": {"name": "DEFB1: human beta defensin-1 (SEQ ID NO:63), expressed in cells from Ponasterone A inducible pIND/DEFB1 construct (protein, listed as Homo sapiens)", "chain": "MRTSYLLLFTLCLLLSEMASGGNFLTGLGHRSDHYNCVSSGGQCLYSACPIFTKIQGTCYRGKAKCCK"}},
  "type_in_all_cases": "cell-based, human",
  "key": {"LNCaP [1]": {"system": "LNCaP", "assay": "MTT cell viability assay, LNCaP", "settings": "DEFB1 (hBD-1) induced with 10 μM PonA, 24-72 h", "description": "Reactions were performed three times in triplicate.\nDU145, PC3 and LNCaP cells […] were transfected with 0.5 μg of the PAX2 siRNA pool or control siRNA pool using Codebreaker transfection reagent according to the manufacturer's protocol (Promega). Next, cell suspensions were diluted and seeded onto a 96-well plate at 1-5×10^3 cells per well and allowed to grow for 2-, 4- or 6 days. After culture, cell viability was determined by measuring the conversion of 3-[4,5-dimethylthiazol-2yl]-2,5 diphenyl tetrazolium bromide, MTT (Promega), to a colored formazan product. Absorbance was read at 540 nm on a scanning multiwell spectrophotometer.\n(§1) To examine the effects of hBD-1 on cell growth, metabolic 3-[4,5-dimethylthiazol-2yl]-2,5-diphenyl tetrazolium bromide (MTT) assay was performed. DU145, LNCaP, PC3 and PC3/AR+ cells co-transfected with pvgRXR plasmid and pIND/hBD-1 construct or control pvgRXR plasmid were seeded onto a 96-well plate at 1-5×10^3 cells per well. Twenty-four hours after seeding, fresh growth medium was added containing 10 μM Pon A daily to induce hBD-1 expression for 24, 48 and 72 h after which the MTT assay was performed according to the manufacturer's instructions (Promega). Reactions were performed three times in triplicate.\nMTT cytotoxicity assay was performed as described in Example 1."}, "PC3/AR+": {"system": "PC3/AR+", "assay": "MTT cell viability assay, PC3/AR+", "settings": "PC3 with ectopic AR expression; hBD-1 induced", "description": "as §1"}, "DU145 [2]": {"system": "DU145", "assay": "Flow cytometry Annexin V-FITC/PI, DU145", "description": "The remaining attached cells were harvested by trypsinization and combined with the detached cells and PBS. The cells were then pelleted at 4° C. (500×g) for 5 min, washed twice in PBS, and resuspended in 100 μl of 1× Annexin binding buffer ([…]) containing 5 μl of Annexin V-FITC and 5 μl of PI. The cells were incubated at RT for 15 min in the dark, then diluted with 400 μl of 1× Annexin binding buffer and analyzed by FACscan (Becton Dickinson, San Jose, Calif.). All reactions were performed three times.\nPC3 and DU145 cells transfected with the hBD-1 expression system were grown in 60-mm dishes and induced for 12, 24, and 48 h with 10 μM Pon A. The cells were harvested and analyzed by flow cytometry as described in Example 1."}, "PC3 [3]": {"system": "PC3", "assay": "Flow cytometry Annexin V-FITC/PI, PC3", "procedure": "The remaining attached cells were harvested by trypsinization and combined with the detached cells and PBS. The cells were then pelleted at 4° C. (500×g) for 5 min, washed twice in PBS, and resuspended in 100 μl of 1× Annexin binding buffer (0.1 M Hepes/NaOH at pH 7.4, 1.4 M NaCl, 25 mM CaCl2) containing 5 μl of Annexin V-FITC and 5 μl of PI. The cells were incubated at RT for 15 min in the dark, then diluted with 400 μl of 1× Annexin binding buffer and analyzed by FACscan (Becton Dickinson, San Jose, Calif.). All reactions were performed three times."}, "DU145 [4]": {"system": "DU145", "assay": "Pan-caspase detection (FAM-VAD-FMK, confocal), DU145", "settings": "DEFB1 (hBD-1) induction 24 h", "description": "(§2) Detection of caspase activity in the prostate cancer cell lines was performed using APO LOGIX™ Carboxyfluorescin Caspase detection kit (Cell Technology, Mountain View, Calif.). Active caspases were detected through the use of a FAM-VAD-FMK inhibitor that irreversibly binds to active caspases. […] Next, 10 μl of a 30× working dilution of carboxyfluorescein labeled peptide fluoromethyl ketone (FAM-VAD-FMK) was added to 300 μl of media and added to each 35 mm dish. Cells were then incubated for 1 hour at 37° C. under 5% CO2. Then, the medium was aspirated and the cells were washed twice with 2 ml of a 1× Working dilution Wash Buffer. Cells were viewed under differential interference contrast (DIC) or under laser excitation at 488 nm. The fluorescent signal was analyzed using a confocal microscope (Zeiss LSM 5 Pascal) and a 63×DIC oil lens with a Vario 2 RGB Laser Scanning Module.\n(§3) Detection of caspase activity in the prostate cancer cell lines was performed s described in Example 1.\n(§4) Detection of caspase activity in the prostate cancer cell lines was performeds described in Example 1.\n(§5) Detection of caspase activity in the prostate cancer cell lines was performed as described in Example 1."}, "PC3 [5]": {"system": "PC3", "assay": "Pan-caspase detection (FAM-VAD-FMK, confocal), PC3", "settings": "DEFB1 (hBD-1) induction 24 h", "description": "as §2, §3, §4, §5"}, "LNCaP [6]": {"system": "LNCaP", "assay": "Pan-caspase detection (FAM-VAD-FMK, confocal), LNCaP", "settings": "DEFB1 (hBD-1) induction 24 h", "description": "as §2, §3, §4, §5"}, "DU145 [7]": {"system": "DU145", "assay": "Membrane integrity AO/EtBr dual staining, DU145", "description": "(§6) Acridine orange (AO)/ethidium bromide (EtBr) dual staining was performed to identify changes in cell membrane integrity, as well as apoptotic cells by staining the condensed chromatin. AO stains viable cells as well as early apoptotic cells, whereas EtBr stains late stage apoptotic cells that have lost membrane permeability. Briefly, cells were seeded into 2 chamber culture slides (BD Falcon, USA). […] In order to determine the effect of PAX2 inhibition on membrane integrity, separate culture slides containing DU145, PC3 and LNCaP were treated with PAX2 siRNA and incubated for 4 days. […] Fluorescence was viewed by a Zeiss LSM 5 Pascal Vario 2 Laser Scanning Confocal Microscope (Carl Zeiss Jena, Germany). […] Slides were analyzed under 40× magnification and digital images were stored as uncompressed TIFF files and exported into Photoshop CS software (Adobe Systems, San Jose, Calif.) for image processing and hard copy presentation. […]\n(§7) Fluorescence was viewed by a Zeiss LSM 5 Pascal Vario 2 Laser Scanning Confocal Microscope (Carl Zeiss). […] Slides were analyzed under 40× magnification and digital images were stored as uncompressed TIFF files and exported into Photoshop CS software (Adobe Systems) for image processing and hard copy presentation. […]"}, "PC3 [8]": {"system": "PC3", "assay": "Membrane integrity AO/EtBr dual staining, PC3", "description": "as §6, §7"}, "LNCaP [9]": {"system": "LNCaP", "assay": "Membrane integrity AO/EtBr dual staining, LNCaP", "settings": "hBD-1 induction 48 h", "description": "as §6, §7"}, "DU145 [10]": {"system": "DU145", "assay": "Phase contrast microscopy of cell growth, DU145", "settings": "DEFB1 induction 48 h", "description": "(§8) Cell morphology was analyzed by phase contrast microscopy. […] The following day plasmid-containing cells were induced for a period of 48 h with media containing 10 μM Ponasterone A, while control cells received fresh media. The cells were then viewed under an inverted Zeiss IM 35 microscope (Carl Zeiss, Germany). Phase contrast pictures of a field of cells were obtained using the SPOT Insight Mosaic 4.2 camera (Diagnostic Instruments, USA). Cells were examined by phase contrast microscopy under 32× magnification and digital images were stored as uncompressed TIFF files and exported into Photoshop CS software (Adobe Systems, San Jose, Calif.) for image processing and hard copy presentation.\n(§9) The effect of PAX2 knock-down on cell growth was analyzed by phase contrast microscopy as described in Example 1.\n(§10) The effect of PAX2 knockdown on cell number was analyzed by phase contrast microscopy as described in Example 1."}, "PC3 [11]": {"system": "PC3", "assay": "Phase contrast microscopy of cell growth, PC3", "settings": "DEFB1 induction 48 h", "description": "as §8, §9, §10"}, "LNCaP [12]": {"system": "LNCaP", "assay": "Phase contrast microscopy of cell growth, LNCaP", "settings": "DEFB1 induction 48 h", "description": "as §8, §9, §10"}},
  "data": [
    {"molecule": "B1", "values": [
      {"measurement": "effect on cell viability", "setting": "LNCaP [1]", "value": "no significant effect"},
      {"measurement": "hBD-1 cytotoxicity, PC3/AR+ compared with PC3", "setting": "PC3/AR+", "value": "no difference"},
      {"measurement": "number of apoptotic cells (annexin V/PI, lower and upper right quadrants)", "setting": "DU145 [2]; DEFB1 (hBD-1) induction 12 h", "value": 12, "unit": "%"},
      {"measurement": "number of apoptotic cells (annexin V/PI, lower and upper right quadrants)", "setting": "DU145 [2]; DEFB1 (hBD-1) induction 24 h", "value": 34, "unit": "%"},
      {"measurement": "number of apoptotic cells (annexin V/PI, lower and upper right quadrants)", "setting": "DU145 [2]; DEFB1 (hBD-1) induction 48 h", "value": 59, "unit": "%"},
      {"measurement": "number of apoptotic cells (annexin V/PI, lower and upper right quadrants)", "setting": "PC3 [3]; DEFB1 (hBD-1) induction 12 h", "value": 10, "unit": "%"},
      {"measurement": "number of apoptotic cells (annexin V/PI, lower and upper right quadrants)", "setting": "PC3 [3]; DEFB1 (hBD-1) induction 24 h", "value": 20, "unit": "%"},
      {"measurement": "caspase activity (green FAM-VAD-FMK staining)", "setting": "DU145 [4]", "value": "green staining"},
      {"measurement": "caspase activity (green FAM-VAD-FMK staining)", "setting": "PC3 [5]", "value": "green staining"},
      {"measurement": "caspase activity (green FAM-VAD-FMK staining)", "setting": "LNCaP [6]", "value": "no green staining"},
      {"measurement": "membrane integrity (AO/EtBr staining)", "setting": "DU145 [7]; DEFB1 (hBD-1) induction 24 h", "value": "accumulation of EtBr in the cytoplasm"},
      {"measurement": "membrane integrity (AO/EtBr staining)", "setting": "DU145 [7]; DEFB1 (hBD-1) induction 48 h", "value": "possessed condensed nuclei and appeared yellow"},
      {"measurement": "membrane integrity (AO/EtBr staining)", "setting": "PC3 [8]; DEFB1 (hBD-1) induction 24 h", "value": "accumulation of EtBr in the cytoplasm"},
      {"measurement": "membrane integrity (AO/EtBr staining)", "setting": "PC3 [8]; DEFB1 (hBD-1) induction 48 h", "value": "possessed condensed nuclei and appeared yellow"},
      {"measurement": "membrane integrity (AO/EtBr staining)", "setting": "LNCaP [9]", "value": "no observable alterations to membrane integrity"},
      {"measurement": "cell number", "setting": "DU145 [10]", "value": "significant reduction in cell number"},
      {"measurement": "cell number", "setting": "PC3 [11]", "value": "significant reduction in cell number"},
      {"measurement": "cell proliferation", "setting": "LNCaP [12]", "value": "no effect on cell proliferation"}
    ]}
  ]
}
